In patent publication US20130129739A1 (Bayer, published 2013):
“And” between values parts separate entries of the source, which are not always exact repeats. Identical values can stand only once.

T1: murine prolactin receptor (PRLR) on cells (mouse, UniProt Q08501 20-608)
T1 construct: whole, on cells; also called mouse PRLR; mPRLR
T1 sequence (looked up): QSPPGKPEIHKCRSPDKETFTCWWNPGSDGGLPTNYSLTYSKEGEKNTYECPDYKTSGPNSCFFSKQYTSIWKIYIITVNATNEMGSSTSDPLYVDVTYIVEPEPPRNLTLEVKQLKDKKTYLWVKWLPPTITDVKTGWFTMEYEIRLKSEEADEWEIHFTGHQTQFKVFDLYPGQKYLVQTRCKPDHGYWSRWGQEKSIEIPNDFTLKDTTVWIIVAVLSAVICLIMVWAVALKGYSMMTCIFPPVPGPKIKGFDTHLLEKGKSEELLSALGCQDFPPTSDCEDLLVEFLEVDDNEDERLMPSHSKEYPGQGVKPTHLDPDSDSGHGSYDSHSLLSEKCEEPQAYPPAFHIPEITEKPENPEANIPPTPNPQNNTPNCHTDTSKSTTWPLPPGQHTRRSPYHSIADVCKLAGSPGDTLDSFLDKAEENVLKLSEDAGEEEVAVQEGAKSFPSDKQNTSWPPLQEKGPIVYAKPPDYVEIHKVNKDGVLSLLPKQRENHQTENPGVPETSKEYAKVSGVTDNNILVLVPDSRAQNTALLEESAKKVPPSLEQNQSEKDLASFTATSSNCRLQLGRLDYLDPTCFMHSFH

T2: human prolactin receptor (PRLR) on cells (human, UniProt P16471 25-622)
T2 construct: whole, on cells; also called human PRLR; hPRLR
T2 sequence (looked up): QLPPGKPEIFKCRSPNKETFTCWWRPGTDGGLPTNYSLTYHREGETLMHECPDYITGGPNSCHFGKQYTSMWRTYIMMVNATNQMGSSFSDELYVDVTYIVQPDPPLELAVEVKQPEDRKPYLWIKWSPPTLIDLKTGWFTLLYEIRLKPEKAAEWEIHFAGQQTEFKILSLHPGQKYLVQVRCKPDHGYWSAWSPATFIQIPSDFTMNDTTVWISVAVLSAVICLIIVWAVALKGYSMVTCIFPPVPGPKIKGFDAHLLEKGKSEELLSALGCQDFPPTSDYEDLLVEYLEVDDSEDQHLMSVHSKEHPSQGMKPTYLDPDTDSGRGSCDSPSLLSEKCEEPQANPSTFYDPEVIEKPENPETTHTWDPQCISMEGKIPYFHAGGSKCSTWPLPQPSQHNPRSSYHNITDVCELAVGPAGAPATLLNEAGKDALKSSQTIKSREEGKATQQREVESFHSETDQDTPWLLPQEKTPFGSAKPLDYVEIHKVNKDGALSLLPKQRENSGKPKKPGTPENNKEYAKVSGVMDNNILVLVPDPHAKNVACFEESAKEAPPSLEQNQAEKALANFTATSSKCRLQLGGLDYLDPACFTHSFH

T3: rat prolactin receptor (PRLR) on Nb2 lymphoma cells (rat, UniProt P05710 20-610)
T3 construct: whole, on cells; also called rat PRLR
T3 sequence (looked up): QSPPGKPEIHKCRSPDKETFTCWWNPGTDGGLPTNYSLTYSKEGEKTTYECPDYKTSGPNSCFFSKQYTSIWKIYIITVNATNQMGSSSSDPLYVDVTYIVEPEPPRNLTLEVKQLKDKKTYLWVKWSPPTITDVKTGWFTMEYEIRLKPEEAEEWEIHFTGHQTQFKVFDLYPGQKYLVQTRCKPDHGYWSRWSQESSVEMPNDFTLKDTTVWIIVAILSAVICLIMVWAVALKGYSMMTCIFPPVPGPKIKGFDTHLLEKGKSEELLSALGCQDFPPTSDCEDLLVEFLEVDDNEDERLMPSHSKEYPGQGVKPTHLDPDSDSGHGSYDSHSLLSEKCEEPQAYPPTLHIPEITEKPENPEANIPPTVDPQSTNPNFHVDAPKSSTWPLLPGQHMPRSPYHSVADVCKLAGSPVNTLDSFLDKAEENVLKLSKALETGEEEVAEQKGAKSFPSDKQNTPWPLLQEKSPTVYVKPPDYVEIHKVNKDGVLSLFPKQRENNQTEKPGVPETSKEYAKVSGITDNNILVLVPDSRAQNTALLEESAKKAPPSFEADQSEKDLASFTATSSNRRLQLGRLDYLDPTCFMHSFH

T4: extracellular domain of human PRLR (monomeric, soluble) (human, UniProt P16471 25-234)
T4 construct: also called ECD-PRLR; ECD of PRLR
T4 sequence: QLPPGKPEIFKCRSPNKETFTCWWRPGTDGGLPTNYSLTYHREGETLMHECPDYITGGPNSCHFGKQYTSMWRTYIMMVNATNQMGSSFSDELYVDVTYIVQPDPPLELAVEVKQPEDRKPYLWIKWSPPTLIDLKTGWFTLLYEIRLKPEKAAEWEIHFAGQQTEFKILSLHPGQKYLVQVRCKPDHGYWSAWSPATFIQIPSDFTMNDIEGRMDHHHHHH


What was measured:
[1] = target: T1, murine prolactin receptor (PRLR) on …; assay: flow cytometry on HEK293 cells stably expressing murine PRLR, PE anti-human IgG, fixed 0.37 µg/ml IgG
Description: In order to determine the binding characteristics of the anti-PRLR antibodies on mouse and human PRLR expressed on cells, binding was tested by flow cytometry on HEK293 cells stably expressing the human and murine PRLR, respectively. The cells as well as the parental HEK293 cell line without PRLR were harvested, centrifuged and resuspended at approximately 5×10⁶ cells/ml in 1×PBS containing 2% FBS and 0.1% sodium azide (FACS buffer). The antibodies 005-C04, 001-E06 and HE06.642 were diluted to 2-fold final concentration in FACS buffer and added to appropriate sample wells (50 μl/well). For secondary antibody and autofluorescence controls, 50 μl FACS buffer was added to appropriate wells. 50 μl of cell suspension was added to each sample well. Samples were incubated at 4° C. for one hour, washed twice with cold FACS buffer and resuspended in FACS buffer containing PE-conjugated goat anti-human IgG at a 1:100 dilution. Following a 30 min incubation at 4° C., cells were washed twice with cold FACS buffer, resuspended in FACS buffer containing […] propidium iodide (Invitrogen, San Diego, Calif.) and analyzed by flow cytometry. […] This observation is consistent with the finding reported in example 9 about the missing efficacy of HE06.642 in the murine PRLR-dependent luciferase reporter gene assay. […]

[2] = target: T2, human prolactin receptor (PRLR) on cells; assay: FACS on human breast cancer cell line T47D, IgG1
[3] = target: T2, human prolactin receptor (PRLR) on cells; assay: cell-based or functional assay
[4] = target: T1, murine prolactin receptor (PRLR) on …; assay: cell-based or functional assay
[5] = target: T3, rat prolactin receptor (PRLR) on Nb2 …; assay: FACS on rat lymphoma cell line Nb2, IgG1
[6] = target: T4, extracellular domain of human PRLR …; assay: SPR (Biacore), IgG1 directly immobilized, monomeric human PRLR ECD from HEK293 as analyte
[7] = target: T3, rat prolactin receptor (PRLR) on Nb2 …; assay: cell-based or functional assay

| Binder | binding result [1] | EC50 [2] [nM] | IC50, inhibition of prolactin-activated Ba/F cell proliferation (human PRLR) [3] | IC50, prolactin-activated luciferase reporter gene activity, HEK293 cells with hPRLR [3] | IC50, inhibition of prolactin-activated Ba/F cell proliferation (murine PRLR) [4] | EC50 [5] [nM] | Kd [6] [nM] | koff [6] [s⁻¹] | IC50, inhibition of prolactin-induced rat lymphoma cell proliferation (NB2 cells) [7] | IC50, prolactin-activated luciferase reporter gene activity, HEK293 cells with mPRLR [4] | binding result [5] |
| --- | --- | --- | --- | --- | --- | --- | --- | --- | --- | --- | --- |
| HE06.642 (antibody, V domains shown, Human Engineered Novartis antibody (WO2008/022295); tested as human IgG1) VH: EVQLVESGGGLVQPGGSLRLSCAVSGFTFSSYGMSWVRQAPGKGLEWVATVSSGGTYTYYPDSVKGRFTISRDNSKNTLYLQMNSLRAEDTAVYYCARHRGNYYATYYYAMDYWGQGTLVTVSS VL: DIVLTQSPDSLAVSLGERATINCKASKSVSTSGYTYMHWYQQKPGQPPKLLIYLASNRESGVPDRFSGSGSGTDFTLTISPVQAEDVATYYCQHSGELPPSFGQGTKLEIKR | no binding (tested: 0.37 µg/ml) | 1.8 | 0.34 µg/ml and 2.2 nM | 0.63 mg/ml and 4.2 nM | > 30 mg/ml and > 200 nM | 0.9 | 0.3 | 0.00032 |  |  |  |
| 005-C04 (antibody, V domains shown, Tested as human IgG1; also called IgG1 005-C04; 005-004) VH: EVQLLESGGGLVQPGGSLRLSCAASGFTFSSYWMHWVRQAPGKGLEWVSDISSASSYTNYADSVKGRFTISRDNSKNTLYLQMNSLRAEDTAVYYCARGLDARRMDYWGQGTLVTVSS VL: QSVLTQPPSASGTPGQRVTISCTGSSSNIGAGYVVHWYQQLPGTAPKLLIYRNNQRPSGVPDRFSGSKSGTSASLAISGLRSEDEADYYCAAWDDSLNGWLFGGGTKLTVLG |  | 1.9 | 1.29 µg/ml and 8.6 nM |  |  | 0.5 | 12.2 | 0.0093 |  |  |  |
| XHA06.642 (antibody, V domains shown, Novartis antibody (WO2008/022295)) VH: EVQLVESGGDLVKPGGSLKLSCAVSGFTFSSYGMSWVRQTPDKRLEWVATVSSGGTYTYYPDSVKGRFTISRDNAKNTLYLQMSSLKSEDSAMYYCARHRGNYYATYYYAMDYWGQGTSVTVSS VL: DIVLTQSPASLAVSLGQGATISCRASKSVSTSGYTYMHWYQQKPGQPPKLLIYLASNLESGVPARFSGSGSGTDFTLNIHPVEEEDAATYYCQHSGELPPSFGGGTKLEIKR |  | 1.5 |  |  |  | 1.1 | 1.2 | 0.00013 | 10 µg/ml and 67 nM | > 50 mg/ml and > 333 nM |  |
| 006-H08 (antibody, V domains shown, Tested as human IgG1; also called IgG1 006-H08) VH: not shown VL: DIVLTQPPSASGTPGQRVTISCSGSNSNIGSNPVNWYQQLPGTAPKLLIYDNNKRPSGVPDRFSGSKSGTSASLAISGLRSEDEADYYCQSYDTGLSGWVFGGGTKLTVLG |  | 1.3 | 0.15 µg/ml and 1 nM | 0.83 mg/ml and 5.5 nM |  |  | 0.7 | 0.00024 |  |  | no binding |
